Results as given in patent publication US20150315606.

Assays:
[1] = target: T1, synthetic fluorogenic EPF1 peptide
T1 chain: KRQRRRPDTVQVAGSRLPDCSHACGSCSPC

[2] = target: T2, synthetic EPF2 peptide (synEPF2), 30 AA partial EPF2 peptide spanning the predicted cleavage site, Dabcyl-SKNGGVEMEMYPTGSSLPDCSYACGACSPC-Glu(EDANS)
T2 chain: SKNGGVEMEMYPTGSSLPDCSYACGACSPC

Protein | synthetic peptide and protease fluorogenic cleavage assay [1] | MALDI-TOF-MS hits of cleavage fragment SKNGGVEMEMYPTGS (SEQ ID NO:131) [2] | MALDI-TOF-MS hits of cleavage fragment SKNGGVEMEMYPTGSSL (SEQ ID NO:130) [2] | MALDI-TOF-MS hits of cleavage fragment SKNGGVEMEMYPTGSSLPD (SEQ ID NO:129) [2] | MALDI-TOF-MS hits of the uncleaved 30 aa peptide [2] | synthetic peptide and protease fluorogenic cleavage assay [2]
CO2-regulated secreted subtilisin-like serine protease (CRSP), STREP II-tagged, synthesized in vitro in the wheat germ system (protein) MKGITFFTPFLSFLYLLCILFMTETEAGSRNGDGVYIVYMGSASSAANANRAQILINTMFKRRANDLLHTYKHGFSGFAARLTAEEAKVIAKKPGVVSVFPDPHFQLHTTHSWDFLKYQTSVKVDSGPPSSASDGSYDSIVGILDTGIWPESESFNDKDMGPIPSRWKGTCMEAKDFKSSNCNRKIIGARYYKNPDDDSEYYTTRDVIGHGSHVSSTIAGSAVENASYYGVASGTAKGGSQNARIAMYKVCNPGGCTGSSILAAFDDAIADGVDVLSLSLGAPAYARIDLNTDPIAIGAFHAVEQGILVICSAGNDGPDGGTVTNTAPWIMTVAANTIDRDFESDVVLGGNKVIKGEGIHFSNVSKSPVYPLIHGKSAKSADASEGSARACDSDSLDQEKVKGKIVLCENVGGSYYASSARDEVKSKGGTGCVFVDDRTRAVASAYGSFPTTVIDSKEAAEIFSYLNSTKDPVATILPTATVEKFTPAPAVAYFSSRGPSSLTRSILKPDITAPGVSILAAWTGNDSSISLEGKPASQYNVISGTSMAAPHVSAVASLIKSQHPTWGPSAIRSAIMTTATQTNNDKGLITTETGATATPYDSGAGELSSTASMQPGLVYETTETDYLNFLCYYGYNVTTIKAMSKAFPENFTCPADSNLDLISTINYPSIGISGFKGNGSKTVTRTVTNVGEDGEAVYTVSVETPPGFNIQVTPEKLQFTKDGEKLTYQVIVSATASLKQDVFGALTWSNAKYKVRSPIVISSESSRTN | EPF1 cleavage by both SDD1 and CRSP shows low affinity | (5 hits) | (3 hits) | (14 hits) | The 30 aa, full length, uncleaved peptide was also seen (14 hits) | EPF2 cleavage sample traces indicate that EPF2 cleavage by CRSP could be specific (compared with SDD1)
SDD1 protease, STREPII tagged, synthesized in the SP6-TNT wheat germ system (protein) MEPKPFFLCIIFLLFCSSSSEILQKQTYIVQLHPNSETAKTFASKFDWHLSFLQEAVLGVEEEEEEPSSRLLYSYGSAIEGFAAQLTESEAEILRYSPEVVAVRPDHVLQVQTTYSYKFLGLDGFGNSGVWSKSRFGQGTIIGVLDTGVWPESPSFDDTGMPSIPRKWKGICQEGESFSSSSCNRKLIGARFFIRGHRVANSPEESPNMPREYISARDSTGHGTHTASTVGGSSVSMANVLGNGAGVARGMAPGAHIAVYKVCWFNGCYSSDILAAIDVAIQDKVDVLSLSLGGFPIPLYDDTIAIGTFRAMERGISVICAAGNNGPIESSVANTAPWVSTIGAGTLDRRFPAVVRLANGKLLYGESLYPGKGIKNAGREVEVIYVTGGDKGSEFCLRGSLPREEIRGKMVICDRGVNGRSEKGEAVKEAGGVAMILANTEINQEEDSIDVHLLPATLIGYTESVLLKAYVNATVKPKARIIFGGTVIGRSRAPEVAQFSARGPSLANPSILKPDMIAPGVNIIAAWPQNLGPTGLPYDSRRVNFTVMSGTSMSCPHVSGITALIRSAYPNWSPAAIKSALMTTADLYDRQGKAIKDGNKPAGVFAIGAGHVNPQKAINPGLVYNIQPVDYITYLCTLGFTRSDILAITHKNVSCNGILRKNPGFSLNYPSIAVIFKRGKTTEMITRRVTNVGSPNSIYSVNVKAPEGIKVIVNPKRLVFKHVDQTLSYRVWFVLKKKNRGGKVASFAQGQLTWVNSHNLMQRVRSPISVTLKTN | EPF1 cleavage by both SDD1 and CRSP shows low affinity | – | – | – | – | –
